In patent US5591613A, “Method for the preparation of D-arginine and L-ornithine” (Degussa Aktiengesellschaft, priority 1990, dated 1997):

Substrate: N=C(N)NCCC[C@H](N)C(=O)O
Assay: Arginase-catalysed hydrolysis of L-Arg to L-Orn, initial rates in batch, with and without inhibitors
Format: biochemical, calf
Settings: other: nonlinear regression of initial rate data with L-Arg; 25.0 °C
Protocol: In further experiments, the materials used were: Calf liver arginase (activity 110 U/mg) which was obtained from Boehringer Mannheim (Mannheim, F.R.G.). Amino acids were from Rexim (Ham, France). MnSO4, MnO2, and ascorbic acid were from E. Merck (Darmstadt, F.R.G.).
Batch conditions used were: Starting pH value, except for the activity-pH curve, was either 11.5, the natural value for L-Arg in water, or 9.5, adjusted from pH 11.5 with conc. HCl. The temperature was 25° C. unless otherwise noted. Typical concentrations of L-Arg were 0.75M. Unless otherwise mentioned, [Mn2^+ ]=5-10^-4 M. Reaction progress was followed by HPLC (amino column, mobile phase: phosphate buffer (pH 6.4)/acetonitrile).
Kinetic data was obtained as follows: Initial rate data were analyzed by a non-linear regression method (Marquardt routine) with the program OPTI (U. Giesecke, KFA J ulich).
A linear slope of 1/[S] vs. [I] plot distinguishes a purely competitive inhibition mechanism from a partially competitive one. Simultaneously, the apparent and the intrinsic KM -value are proportional to [I] according to equation (5) from which the inhibition constant KI can be calculated
Since the runs have been conducted at [LArg]=50 mM=2·Km,intr,Vo =Vmax ·2·KM,intr /(KM,intr (3+[I]/KI))=Vmax ·2/(3+[I]/KI). At [I]=KI, Vo =Vmax 2/(3+1)=Vmax /2. So, KI can be calcuated with sufficient accuracy from a Vo vs. [I] plot such as FIG. 4.

B1: Calf liver arginase (Bos taurus) (protein)
chain: MSSKPQSIGVIGAPFSKGQPRGGVEEGPTVLRKAGLLEKLKELECDVKDYGDLSFADNLDDSPFQIVKNPRCVGKASEKLADVVAEVKKTGRISLVLGGDHSLAIGSISGHARVHPDLCVIWVDAHTDINTPLTTKTGNLHGQPVSFLLKELKEKMPEVPGFYWVAPCISAKDIVYIGLRDVDPGEHYILKTLGIKYFSMTEVDKLGIGKVMEETFSYLLGRKKRPIHLSFDVDGLDPSFTPATGTPVQGGLTYREGLYITEEIYKTGLLSGLDIMEVNPSLGKTPEEVTRTVNTTVAITMACFGVAREGNHKPIDYLSPPK
notes: purchased Boehringer Mannheim (Mannheim, F.R.G.)
Which Km does the source give for B1 here?
The Km was 25.5 mM.

And the kcat?
Its kcat is 1200 s⁻¹.
